Source: US20260021193A1 (IMMUNOME, published 2026)

Tests used:
[1] = molecular target: T1, Hu/Cy/Rh ROR1 - His (Human/Cyno/Rhesus, UniProt Q01973 30-403, limits assumed); test: SPR (Carterra), cell 'Kinetics (KD)' in the head and in the left column of the binning table, antigen Hu/Cy/Rh ROR1-His; no unit stands on the sheet, M is taken from Table 3, where the same KD values of the other four antibodies stand under KD (M)
T1 construct: Purified His-tagged ROR1 protein used in SPR; also called Human/Cyno/Rhesus ROR-1; not shown: His tag

[2] = molecular target: T2, human ROR-1 endogenously expressed on JeKo-1 and MDA-MB-468 cells (human, UniProt Q01973 30-937); test: cell-based or functional assay
[3] = molecular target: T1, Hu/Cy/Rh ROR1 - His; test: SPR, purified Hu/Cy/Rh ROR1-His
[4] = molecular target: T2, human ROR-1 endogenously expressed on …; test: flow cytometry: titration of the antibody on ROR-1 positive JeKo-1 cells, secondary antibody staining, Net MFI
[5] = molecular target: T2, human ROR-1 endogenously expressed on …; test: as above; remark: listed apart in the source
Procedure: Cells were washed, stained with secondary antibody and cell binding saturation was detected by flow cytometry and reported as mean fluorescent intensity (MFI).
A cell binding saturation assay was developed to evaluate how well the anti-ROR-1 antibodies developed in Example 22 bound to endogenously expressed extracellular ROR-1 protein on cell lines. […] Cells were then washed and subjected to secondary antibody staining and detection by flow cytometry. Mean fluorescence (MFI) was determined by analysis on cytometer software. […] (See FIGS. 27A-27B).

[6] = molecular target: T2, human ROR-1 endogenously expressed on …; test: cell-based or functional assay; remark: listed apart in the source
[7] = molecular target: T2, human ROR-1 endogenously expressed on …; test: flow cytometry (cellular binning): titration of the antibody on MDA-MB-468 cells, fluorescently labeled secondary antibody, % Top MFI
Procedure: (§1) Next, the anti-ROR-1 antibodies were fluorescently labeled with a secondary antibody.
(§2) In Step 2, a fluorescently labeled secondary antibody recognizing the novel antibodies was incubated with the samples.

[8] = molecular target: T2, human ROR-1 endogenously expressed on …; test: as above; remark: listed apart in the source
Procedure: as §1, §2

[9] = molecular target: T2, human ROR-1 endogenously expressed on …; test: flow cytometry competition (cellular binning) on MDA-MB-468 cells: cells coated with titrated ATX-P-875, then a saturating dose of the labeled competitor 4A5-PE, whose signal is plotted in % Top MFI
Procedure: as §1, §2

[10] = molecular target: T3, Mouse ROR1 - His (Mouse, UniProt Q9Z139 30-403, limits assumed); test: SPR, purified Mouse ROR1-His
T3 construct: Purified His-tagged mouse ROR1 protein used in SPR; not shown: His tag

[11] = molecular target: T2, human ROR-1 endogenously expressed on …; test: flow cytometry (cellular binning): titration of the antibody on MDA-MB-468 cells, fluorescently labeled secondary antibody, % Top MFI; remark: listed apart in the source
Procedure: as §1, §2

[12] = molecular target: T2, human ROR-1 endogenously expressed on …; test: flow cytometry competition (cellular binning) on MDA-MB-468 cells: cells coated with titrated ATX-P-885, then a saturating dose of the labeled competitor Dy650-UC961, whose signal is plotted in % Top MFI
Procedure: as §1, §2

T3 sequence (Q9Z139 30-403 limits assumed): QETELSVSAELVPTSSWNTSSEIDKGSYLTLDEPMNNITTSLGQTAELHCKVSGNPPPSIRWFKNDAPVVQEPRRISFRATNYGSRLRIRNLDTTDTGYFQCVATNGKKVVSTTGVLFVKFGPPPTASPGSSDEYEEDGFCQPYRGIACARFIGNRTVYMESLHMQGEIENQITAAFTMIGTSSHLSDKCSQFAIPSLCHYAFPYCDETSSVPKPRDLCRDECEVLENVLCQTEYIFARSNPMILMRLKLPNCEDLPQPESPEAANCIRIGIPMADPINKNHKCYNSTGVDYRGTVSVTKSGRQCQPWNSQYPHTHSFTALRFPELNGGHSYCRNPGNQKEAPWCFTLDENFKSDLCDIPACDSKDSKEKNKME

Row | Binder | Kd [1] [nM] | JeKo-1 (%) cellular internalization [2] [%] | MDA-MB-468(%) cellular internalization [2] [%] | Kd [3] [nM] | koff [3] [s⁻¹] | kon [3] [M⁻¹ s⁻¹] | EC50 (read off the curve) [4] [nM] | EC50 (read off the curve) [5] [nM] | ROR-1 receptor internalization on JeKo-1 and MDA-MB-468 cells (reduction of surface antibody over 4 hours, flow cytometry) [6] [%] | EC50 (read off the curve) [7] [nM] | EC50 (read off the curve) [8] [nM] | IC50 (read off the curve) [9] [nM] | Kd [10] [nM] | koff [10] [s⁻¹] | kon [10] [M⁻¹ s⁻¹] | EC50 (read off the curve) [11] [nM] | IC50 (read off the curve) [12] [nM]
1 | 4A5 (antibody, V domains shown) VH: EVKLVESGGGLVKPGGSLKLSCAASGFTFSSYAMSWVRQIPEKRLEWVASISRGGTTYYPDSVKGRFTISRDNVRNILYLQMSSLRSEDTAMYYCGRYDYDGYYAMDYWGQGTSVTVSS VL: DIKMTQSPSSMYASLGERVTITCKASPDINSYLSWFQQKPGKSPKTLIYRANRLVDGVPSRFSGGGSGQDYSLTINSLEYEDMGIYYCLQYDEFPYTFGGGTKLEMK | 2.81 | – | – | – | – | – | – | – | – | – | – | – | – | – | – | – | –
2 | UC-961 (ATX-P-453) (antibody, V domains shown) VH: QVQLQESGPGLVKPSQTLSLTCTVSGYAFTAYNIHWVRQAPGQGLEWMGSFDPYDGGSSYNQKFKDRLTISKDTSKNQVVLTMTNMDPVDTATYYCARGWYYFDYWGHGTLVTVSS VL: DIVMTQTPLSLPVTPGEPASISCRASKSISKYLAWYQQKPGQAPRLLIYSGSTLQSGIPPRFSGSGYGTDFTLTINNIESEDAAYYFCQQHDESPYTFGEGTKVEIK | – | 75 | 80 | 4.69 | 0.00591 | 1.26e+06 | ~0.02 | ~0.1 | – | – | – | – | – | – | – | – | –
3 | ATX-P-875 (antibody, V domains shown) VH: not shown VL: DIQMTQSPSSLSASVGDRVTITCRASQSISSYLNWYQQKPGKAPKLLIYAASSLQSGVPSRFSGSGSGTDFTLTISSLQPEDFATYYCQQYDNLPITFGQGTRLEIKR | – | 75 | 89 | – | – | – | – | – | ≥ 75 | ~0.9 | ~0.5 | ~0.7 | – | – | – | – | –
4 | ATX-P-885 (antibody, V domains shown) VH: QVQLQQWGAGLLKPSETLSLTCAVYGGSFSGYYWSWIRQPPGKGLEWIGEINHSGSTNYNPSLKSRVTISVDTSKNQFSLKLSSVTAADTAVYYCAREGVYEDYWGQGTLVTVSS VL: EIVLTQSPATLSLSPGERATLSCRASQSVSNYLAWYQQKPGQAPRLLIYDAYNRATGIPARFSGSGSGTDFTLTISSLEPEDFAVYYCQQRSNWPLTFGQGTRLEIKR | – | 75 | 89 | 10.9 | 0.00295 | 270000 | – | ~0.3 | ≥ 75 | ~3 | – | – | 45.3 | 0.00132 | 29200 | ~2 | ~3
